Here are results for 17 substances from US20250290123.

Where two headings read alike, the source gives them in different places. Some results are limits rather than exact numbers.

Data set [1] concerns LigAT_C-RNAseH-Ecoli (ATCV-1 ligase fused at C-terminus to inactive E. coli RNase H) (Acanthocystis turfacea chlorella virus 1 / Escherichia coli). The note with it: CE ligation assay.
Data set [2] concerns LigAT-HU (control ligase). The note with it: CE ligation assay, control buffer, 2 h 37 C.
The subject of data set [3] is LigAT_C-RNAseH-Sto (Acanthocystis turfacea chlorella virus 1 / Sulfolobus tokodaii). The note with it: 5'-phosphate; Buffer 2B, 37-55 C, 2 h.
For data set [4], the system named is LigAT_C-RNAseH-Ecoli (ATCV-1 ligase fused at C-terminus to inactive E. coli RNase H) (Acanthocystis turfacea chlorella virus 1 / Escherichia coli). The note with it: 5'-phosphate; Buffer 1B, 37-55 C, 2 h, 1 uM ligase.
Data set [5] has as its system LigAT-HU (control ligase). To be noted: 5'-phosphate; control buffer 37 C; less than 5% at 55 C.

With “AA junction RNA template with DNA substrates A and pA”, the activity (% ligation yield) in data set [1] (5'-phosphate on SEQ 43, matched junction) stood at 37.

AC junction template and substrates returned an activity (% ligation yield) in data set [1] of 36.

AG junction template and substrates: the activity (% ligation yield) in data set [2] was under 10; in data set [1], 23.

In turn, AT junction template and substrates had an activity (% ligation yield) in data set [1] of 37.

In data set [1], CA junction template and substrates came in with an activity (% ligation yield) of 39.

Regarding CC junction template and substrates, the activity (% ligation yield) in data set [2] was under 10; in data set [1], 33.

Turning to CG junction template and substrates, the activity (% ligation yield) was under 10 in data set [2] and 17 in data set [1].

CT junction template and substrates came in with an activity (% ligation yield) in data set [1] of 43.

Turning to “DNA padlock probes annealed to RNA template”, the activity (% ligated product) in data set [3] was over 75; in data set [4] it was over 75; in data set [5] it was 25.

For GA junction template and substrates, in data set [1], the activity (% ligation yield) was determined as 48.

For GC junction template and substrates, the results for the activity (% ligation yield) in data set [2] and in data set [1] were under 10 and 35, respectively.

In the case of GG junction template and substrates, the results for the activity (% ligation yield) in data set [2] and in data set [1] were under 10 and 27, respectively.

In turn, GT junction template and substrates yielded an activity (% ligation yield) in data set [1] of 47.

On to TA junction template and substrates, for which the activity (% ligation yield) in data set [1] came to 45.

As for TC junction template and substrates, in data set [1], the activity (% ligation yield) stood at 49.

In the case of TG junction template and substrates, the activity (% ligation yield) in data set [1] was 40.

In turn, TT junction template and substrates had an activity (% ligation yield) in data set [1] of 50.
